Target: B7-1 on stably transfected B7-1+ Chinese hamster ovary (CHO) cells (human) (UniProt P33681)
Assay: ELISA

UniProt P33681, sequence (P33681 35-288): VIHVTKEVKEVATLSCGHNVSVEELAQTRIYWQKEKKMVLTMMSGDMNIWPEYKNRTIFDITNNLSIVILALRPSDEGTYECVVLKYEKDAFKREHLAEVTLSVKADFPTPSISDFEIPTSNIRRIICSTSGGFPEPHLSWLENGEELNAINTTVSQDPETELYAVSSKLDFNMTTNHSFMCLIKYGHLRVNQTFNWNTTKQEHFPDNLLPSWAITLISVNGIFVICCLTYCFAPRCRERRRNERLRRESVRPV

Substance | percentage of B7-1 binding activity (of CTLA4Ig) [%]
CTLA4Ig M99A (Fc fusion) | < 0.1
CTLA4Ig P102A (Fc fusion) | 3
CTLA4Ig P103A (Fc fusion) | < 0.1
CTLA4Ig Y100A (Fc fusion) | 3
CTLA4Ig Y104A (Fc fusion) | < 0.1

From article PMC2191786
